How the values were obtained:
IL-17A = molecular target: T1, IL-17A (Homo sapiens, UniProt Q16552); assay: Surface plasmon resonance (BIAcore T200) binding of peptides to captured Avi-tagged IL-17A; conditions: 8°C, 50 μl/min, 10 mM HEPES pH 7.5, 150 mM NaCl, 0.005% P20, 3% DMSO; global fit, 1:1 binding model; read-out: SPR KD1
T1 construct: His-tag; Flag-tag; made in house; host or cells: Sf9 insect cells (baculovirus)

[1] = clinical trials, moderate to severe psoriasis; ref [7]–[9]; cited from earlier work
Description: Augmented expression of IL-17A is linked with various autoimmune disorders. Therefore, blocking activity of IL-17A has been of great therapeutic interest. Two approved antibody based therapeutics targeting IL-17A, Secukinumab and Ixekizumab, are currently being used for treatment of moderate to severe psoriasis. […] Moreover, current advanced clinical trials have shown promising results for treatment of ankylosing spondylitis and psoriatic arthritis ...

[2] = molecular target: Avi-tagged IL-17A (IL-17A molecule with a single biotin tag per dimer) (human) (UniProt Q16552); assay: SPR; Avi-tagged IL-17A (6000–9000 RU) captured on a streptavidin chip; peptides flowed at 50 μl/min; 8°C; 10 mM HEPES pH 7.5, 150 mM NaCl, 0.005% P20, 3% DMSO; global fit, 1:1 binding model
[3] = molecular target: Avi-tagged IL-17A (IL-17A molecule with a single biotin tag per dimer) (human) (UniProt Q16552); assay: AlphaScreen or HTRF; AlphaLISA competition: 2 nM IL-17RA-flag and 2 nM Avi-tagged IL-17A-His with peptide dilutions, 2 h at room temperature; streptavidin donor and anti-FLAG acceptor beads; 20 mM HEPES, 150 mM NaCl, 0.05% Tween-20, 0.1% HSA, pH 7, 1% DMSO; relative IC50, four parameter fit
[4] = molecular target: the molecule itself; assay: crystal structure; IL-17A at 7.1 mg/ml with 2 mM peptide; crystals at 8°C in 20% PEG 3350, 200 mM lithium chloride; 1.6 Å

With CSCC[C@@H]1NC(=O)[C@H](CC(=O)O)NC(=O)[C@H](Cc2ccc(O)cc2)NC(=O)[C@H](CCC(=O)O)NC(=O)[C@H](CC(C)C)NC(=O)[C@H](C(C)C)NC(=O)[C@H](Cc2c[nH]c3ccccc23)NC(=O)[C@@H](N)CSSC[C@@H](C(=O)N[C@@H](CCCNC(=N)N)C(=O)O)NC(=O)[C@H](Cc2c[nH]cn2)NC(=O)[C@H](CC(C)C)NC(=O)[C@H](C)NC(=O)CNC(=O)[C@H](Cc2ccccc2)NC1=O [18–902] the Kd (IL-17A) was 1.3 µM.

For “Secukinumab: approved antibody based therapeutic targeting IL-17A”, the “patient population with at least 75% reduction of disease severity (PASI75)” value [1] is given as 80%.

For “Ixekizumab: approved antibody based therapeutic targeting IL-17A”, the “patient population with at least 75% reduction of disease severity (PASI75)” value [1] is listed as 80%.

B1: 18–913 (peptide)
peptide: CLDLQYDMFGALHCV
With B1 the Kd [2] was 3.87 µM, the koff [2] was 0.0528 s⁻¹ and the kon [2] was 13700 M⁻¹ s⁻¹. The IC50 [3] was 1.9 µM.

B2: IL-17A residues 38–155 with the mutations N68D/C129S (ligand, human, UniProt Q16552 38-155, looked up)
chain: DKNFPRTVMVNLNIHNRNTNTNPKRSSDYYDRSTSPWNLHRNEDPERYPSVIWEAKCRHLGCINADGNVDYHMNSVPIQQEILVLRREPPHSPNSFRLEKILVSVGCTCVTPIVHHVA
notes: construct numbers and the two mutations count on the precursor protein; Crystallography construct
B2: binds [4].
